Test results reported in the supplement of paper PMC7877785.
± gives the uncertainty stated by the source.

Experiment: self-splicing fitness, log relative to wild type (ln ratio); higher = more splicing; Tetrahymena group I intron in knt gene, E. coli kanamycin selection, DiMSum; sequences stand for … in CUCUCU…GGAGGGAAAAGUUAUCAGGCAUGCACCUGGUAGCUAGUCUUUAAACCAAUAGAUUGCAUCGGUUUAAAAGGCAAGACCGUCAAAUUGCGGGAAAGGGGUCAACAGCCGUUCAGUACCAAGUCUCAGGGGAAACUUUGAGAUGGCCUUGCAAAGGGUAUGGUAAUAAGCUGACGGACAUGGUCCUAACCACGCAGCCAAGUCCUAAGUCAACAGAUCUUCUGUUGAUAUGGAUGCAGUUCACAGACUAAAUGUCGGUCGGGGAAGAUGUAUUCUUCUCAUAAGAUAUAGUCGGACCUCUCCUUAAUGGGAGCUAGCGGAUGAAGUGAUGCAACACUGGAGCCGCUGGGAACUAAUUUGUAUGCGAAAGUAUAUUGAUUAGUUUUGGAGUACUCGUGGUCG
Method in brief: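 A randomised library covering all eight P1ex-region intron nucleotides was built with the intron in the knt kanamycin-resistance gene on pET-22b(+) and held in E. coli BL21(DE3). Cells were grown overnight at 37°C or 30°C on LB agar, with or without 25 μg/mL kanamycin, plus 100 μg/mL carbenicillin, 50 μM IPTG and 0.2% rhamnose, and pooled colonies were amplicon-sequenced on an Illumina HiSeq 2500. DiMSum fitness is the error-weighted combination of wild-type-normalised replicate fold changes, kanamycin versus none.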

Sequence | self-splicing fitness (ln) (30 °C) | self-splicing fitness (ln) (37 °C)
CCGCAGCAAUAUUACGGACG | -2.13 ± 0.1 | -0.204 ± 0.11
CCGCAGCAAUAUUACGGAUU | -3.8 ± 0.14 | -2.75 ± 0.16
CCGCAGCAAUAUUACGGCCC | -3.3 ± 0.48 | 
CCGCAGCAAUAUUACGGCCU | -3.67 ± 0.42 | -2.88 ± 0.24
CCGCAGCAAUAUUACGGCUC | -4.29 ± 0.21 | -1.34 ± 0.12
CCGCAGCAAUAUUACGGUGG | -3.11 ± 0.12 | -3.48 ± 0.2
CCGCAGCAAUAUUACGUAAA | -4.2 ± 0.25 | -2.62 ± 0.2
CCGCAGCAAUAUUACGUAAG | 0.385 ± 0.056 | -0.112 ± 0.062
CCGCAGCAAUAUUACGUCUA | -1.79 ± 0.32 | -3 ± 0.3
CCGCAGCAAUAUUACGUGAU | -2.62 ± 0.15 | -2.31 ± 0.2
CCGCAGCAAUAUUACGUGCC | -3.67 ± 0.24 | -3.75 ± 0.3
CCGCAGCAAUAUUACGUGUG | -3.24 ± 0.11 | -1.79 ± 0.094
CCGCAGCAAUAUUACGUUAG | -1.11 ± 0.064 | -0.553 ± 0.076
CCGCAGCAAUAUUACGUUUA | -3.22 ± 0.18 | -2.35 ± 0.14
CCGGAGCAAUAUUACGAAAA |  | -2.99 ± 0.48
CCGGAGCAAUAUUACGAAUA |  | -2.16 ± 0.4
CCGGAGCAAUAUUACGAAUU |  | -3.26 ± 0.3
CCGGAGCAAUAUUACGACGC | -3.23 ± 0.22 | -2.22 ± 0.32
CCGGAGCAAUAUUACGACUA | -2.18 ± 0.45 | -1.88 ± 0.27
CCGGAGCAAUAUUACGACUU | -2.23 ± 0.24 | -1.86 ± 0.48
CCGGAGCAAUAUUACGAGCC | -3.09 ± 0.31 | -2.1 ± 0.42
CCGGAGCAAUAUUACGAGCU | -2.94 ± 0.35 | -1.84 ± 0.49
CCGGAGCAAUAUUACGAGUG | -1.61 ± 0.076 | -0.14 ± 0.084
CCGGAGCAAUAUUACGAUGG | -3.6 ± 0.48 | -3 ± 0.43
CCGGAGCAAUAUUACGAUUG | -0.529 ± 0.094 | 0.132 ± 0.14

Sequence | self-splicing fitness (ln) (30 °C) | self-splicing fitness (ln) (37 °C)
CCGGAGCAAUAUUACGCGCC | -1.89 ± 0.32 | 
CCGGAGCAAUAUUACGCUCA | -3.12 ± 0.3 | -2.71 ± 0.41
CCGGAGCAAUAUUACGCUUG | -2.67 ± 0.24 | -2.22 ± 0.27
CCGGAGCAAUAUUACGGAAA | -1.87 ± 0.18 | -2.41 ± 0.3
CCGGAGCAAUAUUACGGAAC | -3.29 ± 0.47 | -1.67 ± 0.36
CCGGAGCAAUAUUACGGAAG | -2.73 ± 0.11 | -2.21 ± 0.14
CCGGAGCAAUAUUACGGAUU |  | -1.82 ± 0.2
CCGGAGCAAUAUUACGGGCU | -3.52 ± 0.35 | -3.75 ± 0.42
CCGGAGCAAUAUUACGGUAA | -2.12 ± 0.25 | -3.21 ± 0.4
CCGGAGCAAUAUUACGUACU | -4.13 ± 0.44 | -3.36 ± 0.42
CCGGAGCAAUAUUACGUAGA | -3.6 ± 0.19 | -2.66 ± 0.2
CCGGAGCAAUAUUACGUCGC | -2.63 ± 0.32 | -2.43 ± 0.41
CCGGAGCAAUAUUACGUGAA |  | -1.86 ± 0.31
CCGGAGCAAUAUUACGUGCU | -2.99 ± 0.17 | -2.85 ± 0.24
CCGGAGCAAUAUUACGUGGU | -3.01 ± 0.2 | 0.658 ± 0.18
CCGGAGCAAUAUUACGUGUG | -1.68 ± 0.039 | -1.05 ± 0.061
CCGUAGCAAUAUUACGAAGG | -3.22 ± 0.39 | 
CCGUAGCAAUAUUACGAAGU | -3.05 ± 0.21 | -1.46 ± 0.31
CCGUAGCAAUAUUACGACUU | -2.98 ± 0.37 | -2.67 ± 0.41
CCGUAGCAAUAUUACGAGCC |  | -1.01 ± 0.42
CCGUAGCAAUAUUACGAGCU | -3.28 ± 0.22 | -3.35 ± 0.24
CCGUAGCAAUAUUACGAUUG | -0.486 ± 0.064 | -0.0224 ± 0.082
CCGUAGCAAUAUUACGCAAU | -3.31 ± 0.24 | -2.05 ± 0.22
CCGUAGCAAUAUUACGCGCA | -3.09 ± 0.3 | -1.69 ± 0.4
CCGUAGCAAUAUUACGCUGC | -2.07 ± 0.47 | -1.49 ± 0.45
